The values below come from PMC4755954, “Impact of clinically tested NEP/ACE inhibitors on tumor uptake of [^111In-DOTA]MG11—first estimates for clinical translation” (EJNMMI Research, 2016).

The conditions of series [1]: iv infusion of 150 mg in 250 mL of isotonic glucose in 42 patients; cited from earlier work. From the text: Aiming at clinical translation, our interest has been attracted by two clinically certified NEP inhibitors, TO and its prodrug Race. TO is a potent, reversible NEP inhibitor with a relative rapid onset of action, but its water solubility is not ideal for iv injection as a bolus together with the radiopeptide. […] The impact of TO on the bioavailability and tumor uptake of our paradigm compound [^111In-DOTA] ...

The nature of series [2]: in vivo. Also noted: species or system SCID mice. Particulars: male, SCID, mouse, iv, 10 pmol total peptide, total radioactivity, %ID/g tissue ± SD. As for the experimental part: (§1) Mice had access to drinking water ad libitum until they were euthanized at 4 h pi. Blood samples, organs of interest, and tumors were collected immediately after dissection, weighted, and measured for radioactivity in the gamma counter; only stomachs were emptied of their contents prior to measurements. Biodistribution data were calculated as percent of injected dose per gram tissue (% ID/g) with the aid of suitable standards of the injected dose, using the GraphPad Prism Software (San Diego, CA).
Inocula of freshly harvested A431-CCK2R(+/−) cells (1.6 × 10^7/1.4 × 10^7 cell suspensions in 150 μL saline) were sc-injected in the right and left flanks of the SCID mice (male SCID mice, 6 weeks of age and of 18 ± 2 g body weight on arrival day; NCSR “Demokritos” Animal House). The animals were kept in aseptic conditions for 8 days till well-palpable tumors (0.26 ± 0.08 g) developed at the inoculation sites. At the day of the experiment, the mice received a bolus of [^111In-DOTA]MG11 (100 μL, 37–74 kBq, 10 pmol total peptide, in saline/EtOH 9/1 v/v) through the tail vein, coinjected with (a) vehicle (100 μL; control group, n = 5), (b) three different doses of PA (3 μg, n = 5; 30 μg, n = 4; or 300 μg PA, n = 10, dissolved in 100 μL vehicle), and (c) three different doses of TO (1.5, 15, or 150 μg TO dissolved in 100 μL vehicle, all groups of n = 4). Mice had free access to drinking water until they were sacrificed at 4 h pi, and biodistribution was conducted as described above.

Series [3] in a line: in vivo. Also noted: species or system SCID mice. Particulars: male, SCID, mouse, iv, 10 pmol total peptide, total radioactivity, %ID/g tissue ± SD. As for the experimental part:
In-house male SCID mice (NCSR “Demokritos” Animal House) of 6 weeks of age at the time of arrival (18 ± 2 g body weight) were inoculated subcutaneously (sc) in their flanks with a suspension of freshly harvested AR42J cells (1 × 10^7 cells in ~150 μL saline). Animals were kept in aseptic conditions for 14 days when well-palpable tumors developed at the inoculation sites (0.31 ± 0.17 g). At the day of biodistribution, animals received a bolus of [^111In-DOTA]MG11 (100 μL, 37–74 kBq, 10 pmol total peptide, in saline/EtOH 9/1 v/v) through the tail vein, coinjected with (a) vehicle (100 μL; control group, n = 10), (b) PA (100 μL of vehicle containing 300 μg PA; PA group, n = 10), (c) TO (100 μL of vehicle containing 150 μg TO; TO group, n = 4), (d) Lis (100 μL of vehicle containing 100 μg Lis; Lis group, n = 4), (e) PA plus Lis (100 μL vehicle containing 300 μg PA and 100 μg Lis; PA+Lis group, n = 5), or (f) 30–40 min after ip injection of Race (3 mg Race dissolved in 0.025 mL DMSO and freshly mixed with 0.375 mL saline; Race group, n = 4). In a separate animal group, the mice were coinjected with 100 μL vehicle containing both 300 μg PA and 100 μg DG2 [25] to assess non-specific tumor uptake during in situ NEP inhibition (in vivo CCK2R blockade; block group, n = 4).
as §1
The source holds these as a separate data set.

Square brackets hold non-standard residues; d marks the D form. Peptide text beside a SMILES is read from it. * marks the point of attachment. DOTA = O=C(O)CN1CCN(CC(=O)O)CCN(CC(=O)*)CCN(CC(=O)O)CC1

As usually defined, the tissue uptake is the percentage of the injected dose found per gram of tissue.

For `O=C(O)CNC(=O)C(CS)Cc1ccccc1` (racemic) [TO, DL-3-mercapto-2-benzylpropanoylglycine], the “hemodynamic tolerance in human” value in series [1] is “excellent hemodynamic tolerance”.
Turning to `CSCC[C@H](NC(=O)[C@H](Cc1c[nH]c2ccccc12)NC(=O)CNC(=O)[C@H](Cc1ccc(O)cc1)NC(=O)[C@H](C)NC(=O)[C@@H](CCC(=O)O)NC(=O)CN1CCN(CC(=O)O)CCN(CC(=O)O)CCN(CC(=O)O)CC1)C(=O)N[C@@H](CC(=O)O)C(=O)N[C@@H](Cc1ccccc1)C(N)=O` [[^111In-DOTA]MG11, metal not drawn] ({DOTA}-[dE]AYGWMDF-NH2), the tissue uptake at 4 h in “in vivo [2]” (Blood) came out at 0.01 ± 0.01 %ID/g; in the series “in vivo [2]” (Femur), 0.02 ± 0.01 %ID/g; in the series “in vivo [2]” (Heart), 0.02 ± 0.01 %ID/g; in “in vivo [2]” (Intestines), 0.83 ± 0.53 %ID/g; in “in vivo [2]” (Kidneys), 1.3 ± 0.29 %ID/g; in “in vivo [2]” (Liver) it was 0.11 ± 0.02 %ID/g. Besides, the tissue uptake at 4 h came to 0.03 ± 0.01 %ID/g in “in vivo [2]” (Lung); 0.02 ± 0.01 %ID/g in the series “in vivo [2]” (Muscle); 0.05 ± 0.02 %ID/g in the series “in vivo [2]” (Pancreas); 0.06 ± 0.01 %ID/g in “in vivo [2]” (Spleen); 1.32 ± 0.26 %ID/g in the series “in vivo [2]” (Stomach); 2.5 ± 0.92 %ID/g in the series “in vivo [2]” (Tumor (+) (A431-CCK2R(+))). The tissue uptake at 4 h stood at 0.12 ± 0.02 %ID/g in the series “in vivo [2]” (Tumor (−) (A431-CCK2R(−))); 0.04 ± 0.01 %ID/g in the series “in vivo [3]” (Blood); 0.09 ± 0.05 %ID/g in “in vivo [3]” (Femur); 0.05 ± 0.02 %ID/g in “in vivo [3]” (Heart); 0.89 ± 0.76 %ID/g in “in vivo [3]” (Intestines); 1.86 ± 0.25 %ID/g in the series “in vivo [3]” (Kidneys). The tissue uptake at 4 h in the series “in vivo [3]” (Liver) came to 0.13 ± 0.03 %ID/g; in “in vivo [3]” (Lung), 0.07 ± 0.02 %ID/g; in “in vivo [3]” (Muscle), 0.04 ± 0.01 %ID/g; in “in vivo [3]” (Pancreas), 0.11 ± 0.03 %ID/g; in the series “in vivo [3]” (Spleen) it was 0.17 ± 0.07 %ID/g; in the series “in vivo [3]” (Stomach) it was 1.53 ± 0.65 %ID/g. Further, the tissue uptake at 4 h in “in vivo [3]” (Tumor (AR42J)) was 1.82 ± 1.25 %ID/g.
